Measurements reported in article PMC5874916 (2018).

Legend:
[1] = target: T1, 6xHis-tagged WT RTp51/p66 heterodimer purified from E. coli (HIV-1, UniProt P04585 588-1027); assay: BLI
[2] = target: T1, 6xHis-tagged WT RTp51/p66 heterodimer …; assay: BLI; remark: listed apart in the source

B1: purified recombinant eEF1A1 (OriGene), biotinylated (natural protein)
chain: MGKEKTHINIVVIGHVDSGKSTTTGHLIYKCGGIDKRTIEKFEKEAAEMGKGSFKYAWVLDKLKAERERGITIDISLWKFETSKYYVTIIDAPGHRDFIKNMITGTSQADCAVLIVAAGVGEFEAGISKNGQTREHALLAYTLGVKQLIVGVNKMDSTEPPYSQKRYEEIVKEVSTYIKKIGYNPDTVAFVPISGWNGDNMLEPSANMPWFKGWKVTRKDGNASGTTLLEALDCILPPTRPTDKPLRLPLQDVYKIGGIGTVPVGRVETGVLKPGMVVTFAPVNVTTEVKSVEMHHEALSEALPGDNVGFNVKNVSVKDVRRGNVAGDSKNDPPMEAAGFTAQVIILNHPGQISAGYAPVLDCHTAHIACKFAELKEKIDRRSGKKLEDGPKFLKSGDAAIVDMVPGKPMCVESFSDYPPLGRFAVRDMRQTVAVGVIKAVDKKAAGAGKVTKSAQKAQKAK
modifications: biotin (EZ-Link-sulfo-NHS-biotin)
- koff [1]: 0.000475 s⁻¹
- Kd [2]: 3.48 nM
